In assay [1] the target is recombinant human IL-8 (form not stated for this assay) (human) (UniProt P10145). Description: competition: varying murine anti-IL-8 antibody against 0.25 nM [125I]-rhIL-8 binding to IL-8 receptors (CXCR1, CXCR2) on human neutrophils, filter plate, gamma counting; x axis printed 'IL-8 (nM)'.
Assay [2] has as its target T1, rh-IL-8 72 aa form, monocyte derived (human, UniProt P10145 28-99).
T1 construct: mature; also called IL-8M; IL-8Mpepretech
T1 sequence (looked up): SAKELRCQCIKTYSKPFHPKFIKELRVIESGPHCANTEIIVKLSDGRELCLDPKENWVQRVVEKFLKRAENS
Description: cell-based or functional assay.

Another assay deals with T2, rh-IP-10 (human, UniProt P02778 22-98).
T2 sequence (looked up): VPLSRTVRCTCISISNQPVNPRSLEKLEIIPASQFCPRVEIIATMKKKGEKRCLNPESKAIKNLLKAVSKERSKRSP
The assay is described as follows: ELISA, plate coated with 1 µg/mL rh-IP-10, HuMab 10F8 titrated 1:3 from 20 µg/mL, HRP anti-human IgG, A405. As for the experimental part:
(§1) Possible cross-reactivity of HuMab 10F8 clone towards other chemokines was evaluated by ELISA. Briefly, microtiter ELISA plates (Greiner, Germany) were coated overnight at room temperature (RT) with 1 μg/mL of recombinant human (rh) GRO-α, rh-GRO-β, rh-IP-10, rh-IL-8 72 aa form, which is monocyte derived (IL-8M or IL-8Mpepretech) or rh-IL-8 77 aa form (IL-8E), which is endothelial cell derived, 100 μl per well. Plates were washed twice with PBST (phosphate buffered saline supplemented with 0.05% v/v Tween-20 (Fischer Scientific, USA)) and wells were blocked with 100 […] PBSTC (PBST plus 2% v/v chicken serum) for 1 hour, RT. Thereafter, wells were incubated for 1 hour, RT under shaking conditions with HuMab-IL-8 clone 10F8, 20 μg/mL 1:3 diluted in PBSTC. Subsequently, wells were washed thrice with PBST and incubated with either HRP-conjugated rabbit anti-mouse IgG F(ab′)₂ fragments (Jackson; diluted 1:3000 in PBSTC) or HRP-conjugated rabbit anti-human IgG F(ab′)₂ (DAKO, Denmark; diluted 1:2000 in PBSTC) for the detection of mouse or human antibodies, respectively.
Background: An ELISA detects its analyte on a solid surface through an enzyme-linked reagent.

A further assay concerns the target T3, rh-GRO-β (human, UniProt P19875 35-107).
T3 sequence (looked up): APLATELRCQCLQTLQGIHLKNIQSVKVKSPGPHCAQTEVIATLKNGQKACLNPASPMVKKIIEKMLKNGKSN
The assay is described as follows: ELISA, plate coated with 1 µg/mL rh-GRO-β, HuMab 10F8 titrated 1:3 from 20 µg/mL, HRP anti-human IgG, A405. As for the experimental part: as §1

Assay [3] addresses T4, recombinant human IL-8 (form not stated for this assay) (human, UniProt P10145 28-99, limits assumed).
T4 construct: also called rhIL-8
T4 sequence (looked up): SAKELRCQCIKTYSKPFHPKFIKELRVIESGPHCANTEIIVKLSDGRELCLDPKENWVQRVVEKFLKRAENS
The assay is described as follows: SPR, BIAcore 3000, IL-8 amine-coupled on CM-5 chip, 37° C.; half-life of the complex. As for the experimental part:
(§2) Affinity constants for 10F8 Fab were determined and compared with corresponding values of 10F8 IgG1,κ. Whole IgG molecules lead to rebinding effects during the dissociation phase of experimental procedures to determine the affinity constants, thus leading to an apparently lower dissociation rate constant and in turn, much higher affinity constant. To eliminate these artifactual avidity effects, Fab molecules were used in the place of IgG1,κ to determine the affinity and rate constants. A CM-5 chip was used to immobilize IL-8 via amine coupling.
(In SPR one partner is held on a chip, and binding of the other changes the refractive index at the surface.)

Assay [4] has as its target T5, recombinant human (rh) GRO-α (human, UniProt P09341 35-107).
T5 sequence (looked up): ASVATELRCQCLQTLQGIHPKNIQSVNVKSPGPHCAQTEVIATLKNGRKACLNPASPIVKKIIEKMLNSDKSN
Description: ELISA, plate coated with 1 µg/mL rh-GRO-α, HuMab 10F8 titrated 1:3 from 20 µg/mL, HRP anti-human IgG, A405. As for the experimental part:
as §1

Assay [5] deals with T4, recombinant human IL-8 (form not stated …). The assay is described as follows: SPR, BIAcore 3000, IL-8 amine-coupled on CM-5 chip, 25° C.; half-life of the complex. As for the experimental part:
as §2

Assay [6] has the same target. The assay is described as follows: inhibition of 0.25 nM [125I]-IL-8 binding to human neutrophils (CXCR1 and CXCR2), filter plate assay. As for the experimental part: (§3) Neutrophils were enriched from heparinized whole blood from normal volunteers. The blood was layered on Ficoll-hypaque and centrifuged at 1500 rpm for 30 minutes. The mononuclear cell layer was removed, and erythrocytes were hypotonically lysed. The resulting neutrophils were resuspended in PBS containing 0.1% BSA and 0.02% Na azide (0.1% PBA) and held on ice. The IL-8 binding assay was performed as previously described (Yang et al, (1999) J. Leukoc. Biol. 66:401-410). Briefly, in a final volume of 150 μl, 4×10⁵ neutrophils were incubated from 1.5-3 hours on ice with 0.25 nM [¹²⁵I] recombinant human IL-8 (Amersham Life Sciences, Piscataway, N.J.) along with varying concentrations of 10F8 (hybridoma-derived), 10F8 (transfectoma-derived), mouse anti-human IL-8 mAb 6712.111 R & D Systems, and control antibody. All incubations were performed in 96 well Multiscreen filter plates (Millipore, Bedford, Mass.). Plates were washed extensively with cold 0.1% PBA, and filters were counted on a Wallac gamma counter. Results are shown in FIGS. 7A and 7B, expressed as means of triplicate or quadruplicates. The inhibition of binding is expressed as percentage of control antibody.
In the experiment shown in FIG. 7B, the IC₅₀s of 10F8 (hybridoma-derived) (10F8 H) and 10F8 (transfectoma-derived) (10F8 T) were 0.19 nM and 0.30 nM, respectively.

Assay [7] shares this target. Description: SPR, BIAcore 3000, IL-8 amine-coupled on CM-5 chip, 25° C. As for the experimental part:
as §2

The target of assay [8] is T1, rh-IL-8 72 aa form, monocyte derived. Description: ELISA, plate coated with 1 µg/mL rh-IL-8 72 aa form (curve IL-8M), HuMab 10F8 titrated 1:3 from 20 µg/mL, HRP anti-human IgG, A405. As for the experimental part: as §1
Assay [9] addresses T4, recombinant human IL-8 (form not stated …). Description: SPR, BIAcore 3000, IL-8 amine-coupled on CM-5 chip, 37° C. As for the experimental part: as §2
Assay [10] shares this target. The assay is described as follows: competition: varying 10F8 against 0.25 nM [125I]-rhIL-8 binding to IL-8 receptors (CXCR1, CXCR2) on human neutrophils, filter plate, gamma counting; x axis printed 'IL-8 (nM)'. As for the experimental part:
The ability of HuMab 10F8 to inhibit radiolabeled IL-8 binding to IL-8 receptors (CXCR1 and CXCR2) on neutrophils was assessed as follows:
as §3

Assay [11] concerns the target T1, rh-IL-8 72 aa form, monocyte derived. The assay is described as follows: ELISA, plate coated with 1 µg/mL rh-IL-8 72 aa form (curve IL-8Mpeprotec), HuMab 10F8 titrated 1:3 from 20 µg/mL, HRP anti-human IgG, A405. As for the experimental part:
as §1

With “mouse anti-human IL-8 mAb 6712.111 (R & D Systems) (antibody)”, in assay [1], the IC50 (read off the curve) was 0.5 nM.

For the molecule “irrelevant human isotype control antibody (Example 8)”, in [2], the expression level of CD11b on IL-8 stimulated PMN (MFI) worked out at 2400 MFI and the expression of CD62L on IL-8 stimulated PMN (MFI) was found to be 150 MFI.

B1: HuMab 10F8 (hybridoma-derived), human monoclonal IgG1,κ antibody (antibody, V domains shown)
VH: QVQLVESGGGVVQPGRSLRLSCTASGFTFSHYGMYWVRQAPGKGLEWVAVIWYDGSYEYNEDSVKGRFTISRDNSKNTLYLQMNSLRAEDTAVYYCARDRVGLFDYWGQGTLVTVSS
VL: EIVLTQSPGTLSLSPGERATLSCRASQSISSSYLAWYQQKPGQAPRLLIYGPSSRATGIPDRFSGSGSGTDFTLTISRLEPEDFAVYYCQQYAGSLTFGPGTKVDIK
notes: Purified from hybridoma culture supernatant by Protein A; also called HuMab-IL-8 clone 10F8; HuMab-IL-8 (10F8)
For the molecule B1, the binding result (with rh-IP-10; with rh-GRO-β; in [4]) was “no binding (tested: 20 µg/ml)” in each case. The “Half-life (1n (2/k_off hrs))” value in assay [3] was determined as 38.2 h; in assay [5], 90.4 h. Also, in assay [6], the IC50 (commonly the concentration needed to halve the response being measured) turned out to be 0.19 nM. For the same molecule, the Kd – broadly, the free concentration of one partner at which half of the binding sites on the other are occupied at equilibrium, for simple one-to-one binding – in [7] is 0.01 nM; in assay [9], 0.02 nM. The dissociation rate constant (koff) – broadly, the first-order rate constant of dissociation – in assay [7] is 2.1e-06 s⁻¹; in assay [9], 5.4e-06 s⁻¹. Also, the on-rate constant (kon) – broadly, the second-order rate constant of association – worked out at 231000 M⁻¹ s⁻¹ in [7] and 275000 M⁻¹ s⁻¹ in assay [9]. Besides, the figures for the half-maximal effective concentration (EC50 (read off the curve)) in [8] and in assay [11] were about 0.4 µg/mL and about 0.2 µg/mL, respectively. The “IC50 (read off the curve)” value in assay [10] is about 0.2 nM.

B2: 10F8 Fab (Fab fragment prepared from HuMab 10F8 IgG) (Fab, V domains shown)
VH: QVQLVESGGGVVQPGRSLRLSCTASGFTFSHYGMYWVRQAPGKGLEWVAVIWYDGSYEYNEDSVKGRFTISRDNSKNTLYLQMNSLRAEDTAVYYCARDRVGLFDYWGQGTLVTVSS
VL: EIVLTQSPGTLSLSPGERATLSCRASQSISSSYLAWYQQKPGQAPRLLIYGPSSRATGIPDRFSGSGSGTDFTLTISRLEPEDFAVYYCQQYAGSLTFGPGTKVDIK
In the case of B2, in assay [3], the “Half-life (1n (2/k_off hrs))” value is 4.9 h. Besides, the “Half-life (1n (2/k_off hrs))” value in assay [5] worked out at 8.3 h. Moreover, in assay [7], the Kd amounted to 0.194 nM, the koff turned out to be 1.96e-05 s⁻¹ and the on-rate constant (kon) stood at 101000 M⁻¹ s⁻¹. For the same molecule, in [9], the Kd is 0.372 nM, the dissociation rate constant (koff) stood at 3.94e-05 s⁻¹ and the on-rate constant (kon) is 106000 M⁻¹ s⁻¹.

B3: HuMab 10F8 (transfectoma-derived), recombinant 10F8 produced from CHO cells (antibody, V domains shown)
VH: QVQLVESGGGVVQPGRSLRLSCTASGFTFSHYGMYWVRQAPGKGLEWVAVIWYDGSYEYNEDSVKGRFTISRDNSKNTLYLQMNSLRAEDTAVYYCARDRVGLFDYWGQGTLVTVSS
VL: EIVLTQSPGTLSLSPGERATLSCRASQSISSSYLAWYQQKPGQAPRLLIYGPSSRATGIPDRFSGSGSGTDFTLTISRLEPEDFAVYYCQQYAGSLTFGPGTKVDIK
As for B3, the half-maximal inhibitory concentration (IC50) in assay [6] came out at 0.3 nM.

Values taken from patent US20160280780A1 (CORMORANT PHARMACEUTICALS, published 2016).
